Test results: article PMC2701625

Target: purified human hsp90 (human) (UniProt P07900)
Assay: cross-linking

stoichiometry N: 2
Substance: purified human hsp90 (from UniProt P07900 1-732) (natural protein)
